Measured values: FireProtDB (doi:10.1016/0022-2836(92)90387-y)

B1: Ribonuclease, P00648 (parent)
chain: MMKMEGIALKKRLSWISVCLLVLVSAAGMLFSTAAKTETSSHKAHTEAQVINTFDGVADYLQTYHKLPDNYITKSEAQALGWVASKGNLADVAPGKSIGGDIFSNREGKLPGKSGRTWREADINYTSGFRNSDRILYSSDWLIYKTTDHYQTFTKIR

Variants of: B1
Conditions: Bacillus amyloliquefaciens; pH 6.3; 25 °C; Urea; Fluorescence; MES 50 mM; reversible: yes; structure 1BNI; whole UniProt chain shown

| Variant | ddG of mutation (higher = less stable) [kcal/mol] | unfolding free energy [kcal/mol] |
| --- | --- | --- |
| N105D | -0.4 | 9.23 |
| Y150F | 0 | 8.83 |
| D101N | 2.67 | 8.16 |
| H149A | 0.24 | 8.59 |
| S104A | -0.15 | 8.98 |
| R106A | -0.64 | 9.47 |
| E120A | 2.3 | 6.53 |
| Q151A | 0.16 | 8.67 |
| K74A | -0.36 | 9.19 |
